Source: patent US20030040043A1 (published 2003)
Changes are numbered by the printed parent chain. Numbers in names are those of the source.

Target: T1, GAL4bd-FtsA fusion (E. coli, UniProt P04386 1-147; P0ABH0 1-420)
T1 construct: also called pAS2-1-FtsA; SHp100
Test: yeast two-hybrid, GAL4 system, plates lacking histidine and AT

B1: GAL4ad-FtsZ^D373G fusion (pGAD424) (other)
chain: MFEPMELTNDAVIKVIGVGGGGGNAVEHMVRERIEGVEFFAVNTDAQALRKTAVGQTIQIGSGITKGLGAGANPEVGRNAADEDRDALRAALEGADMVFIAAGMGGGTGTGAAPVVAEVAKDLGILTVAVVTKPFNFEGKKRMAFAEQGITELSKHVDSLITIPNDKLLKVLGRGISLLDAFGAANDVLKGAVQGIAELITRPGLMNVDFADVRTVMSEMGYAMMGSGVASGEDRAEEAAEMAISSPLLEDIDLSGARGVLVNITAGFDLRLDEFETVGNTIRAFASDNATVVIGTSLDPDMNDELRVTVVATGIGMDKRPEITLVTNKQVQQPVMDRYQQHGMAPLTQEQKPVAKVVNDNAPQTAKEPDYLGIPAFLRKQAD
notes: also called pGAD424-FtsZ^D373G; SHp201
**Q.** Does B1 bind?
**A.** no binding

B2: GAL4ad-FtsZ^D373G,P375L fusion (pGAD424) (other)
chain: B1 chain with P375L
notes: also called pGAD424-FtsZ^D373G,P375L; SHp203
**Q.** Does B2 bind?
**A.** no binding
